This note sets out measurements from publication PMC3315804 (Molecular Biology of the Cell, 2012).

Experiment [1] deals with Y14D-Cav-1-YFP (phosphomimicking mutant) (human) (UniProt Q03135). In words: co-IP.
The target in experiment [2] is T1, Y14D-Cav-1-YFP (phosphomimicking mutant) (human, UniProt Q03135 1-178, Y14D).
T1 sequence: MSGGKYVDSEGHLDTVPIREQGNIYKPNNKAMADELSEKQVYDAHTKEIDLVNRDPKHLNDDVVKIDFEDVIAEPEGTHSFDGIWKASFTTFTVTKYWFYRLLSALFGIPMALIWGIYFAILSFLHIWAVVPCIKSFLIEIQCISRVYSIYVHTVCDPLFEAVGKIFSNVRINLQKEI
In words: co-IP.

In experiment [1], “eNOS-S1177D-CFP (phosphomimicking mutant) (from UniProt P29474-1 1-1203) (enzyme)” came in with a fold binding against WT-eNOS with WT-Cav-1 of 4.2 fold.

B1: WT-eNOS-CFP, expressed in HEK cells (enzyme)
chain: MGNLKSVAQEPGPPCGLGLGLGLGLCGKQGPATPAPEPSRAPASLLPPAPEHSPPSSPLTQPPEGPKFPRVKNWEVGSITYDTLSAQAQQDGPCTPRRCLGSLVFPRKLQGRPSPGPPAPEQLLSQARDFINQYYSSIKRSGSQAHEQRLQEVEAEVAATGTYQLRESELVFGAKQAWRNAPRCVGRIQWGKLQVFDARDCRSAQEMFTYICNHIKYATNRGNLRSAITVFPQRCPGRGDFRIWNSQLVRYAGYRQQDGSVRGDPANVEITELCIQHGWTPGNGRFDVLPLLLQAPDDPPELFLLPPELVLEVPLEHPTLEWFAALGLRWYALPAVSNMLLEIGGLEFPAAPFSGWYMSTEIGTRNLCDPHRYNILEDVAVCMDLDTRTTSSLWKDKAAVEINVAVLHSYQLAKVTIVDHHAATASFMKHLENEQKARGGCPADWAWIVPPISGSLTPVFHQEMVNYFLSPAFRYQPDPWKGSAAKGTGITRKKTFKEVANAVKISASLMGTVMAKRVKATILYGSETGRAQSYAQQLGRLFRKAFDPRVLCMDEYDVVSLEHETLVLVVTSTFGNGDPPENGESFAAALMEMSGPYNSSPRPEQHKSYKIRFNSISCSDPLVSSWRRKRKESSNTDSAGALGTLRFCVFGLGSRAYPHFCAFARAVDTRLEELGGERLLQLGQGDELCGQEEAFRGWAQAAFQAACETFCVGEDAKAAARDIFSPKRSWKRQRYRLSAQAEGLQLLPGLIHVHRRKMFQATIRSVENLQSSKSTRATILVRLDTGGQEGLQYQPGDHIGVCPPNRPGLVEALLSRVEDPPAPTEPVAVEQLEKGSPGGPPPGWVRDPRLPPCTLRQALTFFLDITSPPSPQLLRLLSTLAEEPREQQELEALSQDPRRYEEWKWFRCPTLLEVLEQFPSVALPAPLLLTQLPLLQPRYYSVSSAPSTHPGEIHLTVAVLAYRTQDGLGPLHYGVCSTWLSQLKPGDPVPCFIRGAPSFRLPPDPSLPCILVGPGTGIAPFRGFWQERLHDIESKGLQPTPMTLVFGCRCSQLDHLYRDEVQNAQQRGVFGRVLTAFSREPDNPKTYVQDILRTELAAEVHRVLCLERGHMFVCGDVTMATNVLQTVQRILATEGDMELDEAGDVIGVLRDQQRYHEDIFGLTLRTQEVTSRIRTQSFSLQERQLRGAVPWAFDPPGSDTNSP
Take B1: the “fold binding against WT-eNOS with WT-Cav-1” value in experiment [2] was 4.2 fold.
